Assay results from paper doi:10.1101/2025.04.16.649061.

Assays:
Assay in all cases: BLI
[1] = molecular target: Hopsarin D (Hoplocephalus stephensii)
M17 fXa variant (human) = molecular target: M17 fXa variant (human)
[2] = molecular target: fXa L1 loop-swap chimera (human)
[3] = molecular target: fXa L123 loop-swap chimera (human)
[4] = molecular target: fXa L123/EGF2 chimera (M45) (human | Hoplocephalus stephensii)
[5] = molecular target: fXa L2 loop-swap chimera (human)
[6] = molecular target: fXa L23 chimera with the full EGF2 domain swap (human | Hoplocephalus stephensii)
[7] = molecular target: fXa L23 loop-swap chimera (human)
[8] = molecular target: fXa L3 loop-swap chimera (human)
[9] = molecular target: fXa SP chimera (entire HopD SP domain swapped into human fXa) (human | Hoplocephalus stephensii)
[10] = molecular target: fXa variant M13 (7 EGF2 and 6 SP mutations) (human)
[11] = molecular target: fXa variant M7 (7 EGF2 mutations) (human)
[12] = molecular target: wild-type human factor Xa (human)

“B-domainless human fV (from UniProt P12259 29-2224) (natural protein)” gave a Kd [1] of 18 nM, a Kd (M17 fXa variant (human)) of 17 nM and a Kd [2] of 532 nM. For the same substance, the Kd [3] was 608 nM, the Kd [4] was 43 nM and the Kd [5] was 1130 nM. The Kd [6] was 369 nM, the Kd [7] was 1120 nM and the Kd [8] was 905 nM. It also gave a Kd [9] of 400 nM, a Kd [10] of 48 nM and a Kd [11] of 78 nM. The Kd [12] was 1380 nM.
